Among the data in PMC5479570 are Kd, koff and kon values, retold here.

The experiment concerns the target CD4-IgG2 (UniProt P01730). As to the kind of experiment: BLI. (Biolayer interferometry detects binding as a change in optical thickness at a sensor tip.)
On to “HIV-1 clade B YU2 gp120 glycoprotein, ΔV3 (from UniProt P35961 32-498) (natural protein)”, for which the Kd (as a rule, a measure of binding affinity in units of concentration) is 0.91 nM; the dissociation rate constant (koff) (commonly the rate constant with which the complex falls apart) amounted to 0.00015 s⁻¹; the kon – broadly, the second-order rate constant of association – worked out at 160000 M⁻¹ s⁻¹.
The like results for “HIV-1 clade B YU2 gp120 extended core (Coree) (domain or fragment)” were, in that order, 0.12 nM, 5.9e-05 s⁻¹ and 474000 M⁻¹ s⁻¹.
The substance “HIV-1 clade B YU2 gp120 glycoprotein, ΔV1/V2 (from UniProt P35961 32-498) (natural protein)” yielded a Kd of 0.34 nM, a koff of 5.4e-05 s⁻¹ and a kon of 178000 M⁻¹ s⁻¹.
